Measurements published in the supplement of paper PMC11865577.

What was measured:
Assay in all cases: pull-down binding Z-score (relative to library population); higher = stronger binding
[1] = tested on: TO-3-N3-2 (biotin conjugate); conditions: RNA library: Library-2
Summary of the method: (§1)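 Biotin-conjugated small molecule (100 pmol) on streptavidin beads was incubated with 1 μg of heat-folded Cy5- or Cy3-end-labelled RNA library in phosphate/NaCl/KCl buffer at 25 °C for 60 min. Following three washes, RNA was eluted with hot SDS and hybridised at 55.5 °C for 20 h to a DNA barcode microarray. The binding value is a Z-score computed from the library mean and standard deviation, after subtraction of beads without compound and averaging of barcoded replicate probes with the highest and lowest excluded.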

[2] = tested on: TO-N3 (biotin conjugate); conditions: RNA library: Library-2
Summary of the method: as §1

[3] = tested on: TO-N3-2 (biotin conjugate); conditions: RNA library: Library-2
Summary of the method: as §1

[4] = tested on: TO-3-N3 (biotin conjugate); conditions: RNA library: Library-2
Summary of the method: as §1

[5] = tested on: G-clamp-N3 (biotin conjugate); conditions: RNA library: Library-1 (pre-miRNA loops + repeats)
Summary of the method: as §1

GUGUCUGGAGACGCCAGGCAGC [hsa-mir-4323]
pull-down binding Z-score [1]: -0.352 | pull-down binding Z-score [2]: 0.127 | pull-down binding Z-score [3]: 1.13 | pull-down binding Z-score [4]: -0.154 | pull-down binding Z-score [5]: -0.529

UGGCUGUAGGGCAGCAGUCA [hsa-mir-8079]
pull-down binding Z-score [1]: 0.456 | pull-down binding Z-score [2]: 1.16 | pull-down binding Z-score [3]: 0.479 | pull-down binding Z-score [4]: 1.29 | pull-down binding Z-score [5]: 0.959

UCUUCCCAAAGUUGAGAAAA [hsa-mir-320d-1]
pull-down binding Z-score [1]: -0.407 | pull-down binding Z-score [2]: -0.746 | pull-down binding Z-score [3]: -0.758 | pull-down binding Z-score [4]: -0.611 | pull-down binding Z-score [5]: -1.32

UUUUUGCAUUACGUUCUAUGGCAAAA [hsa-mir-548g]
pull-down binding Z-score [1]: -0.00229 | pull-down binding Z-score [2]: -0.182 | pull-down binding Z-score [3]: -0.0583 | pull-down binding Z-score [4]: -0.297 | pull-down binding Z-score [5]: 1.18

UUGUGGCUUUGGGUGGAUAUUAAUCAGCCACAG [hsa-mir-383]
pull-down binding Z-score [1]: 0.274 | pull-down binding Z-score [2]: 0.0969 | pull-down binding Z-score [3]: 0.0594 | pull-down binding Z-score [4]: 0.257 | pull-down binding Z-score [5]: 0.747

UUACUCACCCUCUCAAAACCGAGACUCAGAGACGUUGGGUAA [hsa-mir-7973-2]
pull-down binding Z-score [1]: 0.138 | pull-down binding Z-score [2]: -0.0759 | pull-down binding Z-score [3]: 0.271 | pull-down binding Z-score [4]: -0.25 | pull-down binding Z-score [5]: -1.63

AAUGCAUAGAAAGCAUU [hsa-mir-4272]
pull-down binding Z-score [1]: 0.00602 | pull-down binding Z-score [2]: -0.421 | pull-down binding Z-score [3]: -0.629 | pull-down binding Z-score [4]: -0.177 | pull-down binding Z-score [5]: 1.58

UGUGCCCCGUACCGGACAGG [hsa-mir-7160]
pull-down binding Z-score [1]: -0.0308 | pull-down binding Z-score [2]: 0.611 | pull-down binding Z-score [3]: 1.21 | pull-down binding Z-score [4]: -0.0418 | pull-down binding Z-score [5]: -1.03

CCCUGGUCAGACUCUCCGGGG [hsa-mir-4675]
pull-down binding Z-score [1]: -0.287 | pull-down binding Z-score [2]: -0.368 | pull-down binding Z-score [3]: -0.561 | pull-down binding Z-score [4]: -0.139 | pull-down binding Z-score [5]: -0.63

AAAACUUUCAUCCAAGUCAUU [hsa-mir-378d-2]
pull-down binding Z-score [1]: -0.238 | pull-down binding Z-score [2]: 0.164 | pull-down binding Z-score [3]: -0.609 | pull-down binding Z-score [4]: 0.382 | pull-down binding Z-score [5]: -0.902

CGGUCGGAUAAUCACAUGACGAG [hsa-mir-2114]
pull-down binding Z-score [1]: -0.221 | pull-down binding Z-score [2]: -0.0316 | pull-down binding Z-score [3]: 0.592 | pull-down binding Z-score [4]: -0.513 | pull-down binding Z-score [5]: 0.425

GGGAGAGGGGCCCAGCUGACCCUCCUGUC [hsa-mir-6879]
pull-down binding Z-score [1]: 0.744 | pull-down binding Z-score [2]: 1.68 | pull-down binding Z-score [3]: 1.89 | pull-down binding Z-score [4]: 0.755 | pull-down binding Z-score [5]: -0.867

AGGCAACAUGGCCGAGAGGCCGGGGCCU [hsa-mir-564]
pull-down binding Z-score [1]: -0.533 | pull-down binding Z-score [2]: -0.12 | pull-down binding Z-score [3]: 0.551 | pull-down binding Z-score [4]: -0.144 | pull-down binding Z-score [5]: 2.93

CCUAGAGUCCAUUCUUUACUCUAGG [hsa-mir-4779]
pull-down binding Z-score [1]: -0.586 | pull-down binding Z-score [2]: -1.18 | pull-down binding Z-score [3]: -1.28 | pull-down binding Z-score [4]: -0.699 | pull-down binding Z-score [5]: -0.507

ACAGCCAGUGCUCUCGUCUCCCCUCUGGCUGC [hsa-mir-192]
pull-down binding Z-score [1]: 0.236 | pull-down binding Z-score [2]: 0.925 | pull-down binding Z-score [3]: 0.949 | pull-down binding Z-score [4]: 0.839 | pull-down binding Z-score [5]: 0.589

UCCUCUCCUGGUCUGGGAGGAUAGAAGAGAGGA [hsa-mir-5191]
pull-down binding Z-score [1]: -0.219 | pull-down binding Z-score [2]: 0.823 | pull-down binding Z-score [3]: 3.13 | pull-down binding Z-score [4]: -0.205 | pull-down binding Z-score [5]: 1.96

AUGCUAAGUCCAUGGGCAAACAU [hsa-mir-5704]
pull-down binding Z-score [1]: -0.165 | pull-down binding Z-score [2]: -0.088 | pull-down binding Z-score [3]: 0.235 | pull-down binding Z-score [4]: -0.258 | pull-down binding Z-score [5]: -0.176

GCAGCUAGUAUUCUCACUCCAGUUGC [hsa-mir-153-1]
pull-down binding Z-score [1]: -0.655 | pull-down binding Z-score [2]: -0.204 | pull-down binding Z-score [3]: 0.592 | pull-down binding Z-score [4]: -0.447 | pull-down binding Z-score [5]: -1.31

AUAGUUGAGGAGGACACCCAAGGAGAUCACUAU [hsa-let-7e]
pull-down binding Z-score [1]: 0.863 | pull-down binding Z-score [2]: 0.871 | pull-down binding Z-score [3]: 1.26 | pull-down binding Z-score [4]: 0.341 | pull-down binding Z-score [5]: -0.413

AUGUUUAUUGUAAAGAUACUUU [hsa-mir-1305]
pull-down binding Z-score [1]: -0.418 | pull-down binding Z-score [2]: -0.517 | pull-down binding Z-score [3]: -0.121 | pull-down binding Z-score [4]: -0.643 | pull-down binding Z-score [5]: -0.249

CUCUCUGUUGCUCUGAAGGAG [hsa-mir-346]
pull-down binding Z-score [1]: -0.318 | pull-down binding Z-score [2]: -0.183 | pull-down binding Z-score [3]: 0.295 | pull-down binding Z-score [4]: -0.271 | pull-down binding Z-score [5]: 1.39

GAAGCACUGGUUAUGAUUUGCAUC [hsa-mir-3126]
pull-down binding Z-score [1]: 0.159 | pull-down binding Z-score [2]: 0.0904 | pull-down binding Z-score [3]: 0.429 | pull-down binding Z-score [4]: -0.087 | pull-down binding Z-score [5]: -0.739

GCUUCCGCUCUGCAGAGGC [hsa-mir-6822]
pull-down binding Z-score [1]: -0.487 | pull-down binding Z-score [2]: 0.0168 | pull-down binding Z-score [3]: -0.438 | pull-down binding Z-score [4]: 0.134 | pull-down binding Z-score [5]: -0.531

GGGAACUGGUGAGUUGUACAUAGAAAUGCUUUCUAACUCC [hsa-mir-4499]
pull-down binding Z-score [1]: -0.00162 | pull-down binding Z-score [2]: 0.112 | pull-down binding Z-score [3]: 0.548 | pull-down binding Z-score [4]: -0.123 | pull-down binding Z-score [5]: 0.204

CUCGCUGGGAGGUGUGCUAUCGUCUUCCCCGGGAG [hsa-mir-3689d-1]
pull-down binding Z-score [1]: -0.13 | pull-down binding Z-score [2]: 0.154 | pull-down binding Z-score [3]: 0.734 | pull-down binding Z-score [4]: -0.0907 | pull-down binding Z-score [5]: 0.293

GUUGGGCAUCCACAGUCUCCCACC [hsa-mir-1911]
pull-down binding Z-score [1]: -0.322 | pull-down binding Z-score [2]: 0.206 | pull-down binding Z-score [3]: 0.612 | pull-down binding Z-score [4]: -0.0617 | pull-down binding Z-score [5]: -1.43

UGCCAUUAAAAGUAAUGGCA [hsa-mir-548i-3_548i-2_548i-1]
pull-down binding Z-score [1]: -0.048 | pull-down binding Z-score [2]: 0.141 | pull-down binding Z-score [3]: -0.409 | pull-down binding Z-score [4]: 0.489 | pull-down binding Z-score [5]: 1.22

UGUGUUCAGUGGAACCAAGGUAAACACA [hsa-mir-624]
pull-down binding Z-score [1]: 0.95 | pull-down binding Z-score [2]: 1.56 | pull-down binding Z-score [3]: 1.22 | pull-down binding Z-score [4]: 1.29 | pull-down binding Z-score [5]: 1.58

ACAGUGGCCACAUCUCCAC [hsa-mir-1184-3_1184-2_1184-1]
pull-down binding Z-score [1]: 0.472 | pull-down binding Z-score [2]: 1.17 | pull-down binding Z-score [3]: 0.582 | pull-down binding Z-score [4]: 1.11 | pull-down binding Z-score [5]: -1.28

UGCUUUGUUAGAAACAAAAAGCA [hsa-mir-4679-1]
pull-down binding Z-score [1]: 0.248 | pull-down binding Z-score [2]: 0.447 | pull-down binding Z-score [3]: -0.462 | pull-down binding Z-score [4]: 0.632 | pull-down binding Z-score [5]: 0.865

ACCUGUGUGUGCCCAAGUGUUUCUAGCAAACACAGGG [hsa-mir-3649]
pull-down binding Z-score [1]: 0.425 | pull-down binding Z-score [2]: 0.757 | pull-down binding Z-score [3]: 0.193 | pull-down binding Z-score [4]: 0.76 | pull-down binding Z-score [5]: 0.215

CCAGGCCCCACGGAGAACCAGGGCACCUGG [hsa-mir-8058]
pull-down binding Z-score [1]: -0.353 | pull-down binding Z-score [2]: -0.188 | pull-down binding Z-score [3]: 0.492 | pull-down binding Z-score [4]: -0.288 | pull-down binding Z-score [5]: 0.303

CGGUGUGCAAAUGUGUGUGUGCGGUGUUAUGCCG [hsa-mir-4442]
pull-down binding Z-score [1]: -0.663 | pull-down binding Z-score [2]: -0.869 | pull-down binding Z-score [3]: -0.316 | pull-down binding Z-score [4]: -0.732 | pull-down binding Z-score [5]: -0.0251

AUUCUGGAGUCCAUCUAGAG [hsa-mir-1182]
pull-down binding Z-score [1]: -0.378 | pull-down binding Z-score [2]: -0.598 | pull-down binding Z-score [3]: -0.297 | pull-down binding Z-score [4]: -0.538 | pull-down binding Z-score [5]: -1.08

GCUUAUUGAUGUAGCCAACAAGC [hsa-mir-3148]
pull-down binding Z-score [1]: -0.225 | pull-down binding Z-score [2]: -0.643 | pull-down binding Z-score [3]: -0.384 | pull-down binding Z-score [4]: -0.527 | pull-down binding Z-score [5]: -0.529

CUCGGGUGGAUAAGUCUGAUCUGAG [hsa-mir-3663]
pull-down binding Z-score [1]: -0.631 | pull-down binding Z-score [2]: -0.554 | pull-down binding Z-score [3]: 0.26 | pull-down binding Z-score [4]: -0.724 | pull-down binding Z-score [5]: 1.2

GAAAUAGGCUGCGAAGAUAACAGUAUUUC [hsa-mir-3942]
pull-down binding Z-score [1]: -0.17 | pull-down binding Z-score [2]: -0.979 | pull-down binding Z-score [3]: -0.482 | pull-down binding Z-score [4]: -0.872 | pull-down binding Z-score [5]: 0.773
